According to article PMC8276268 (Biochemistry, 2012):

What was measured:
[1] = molecular target: ABCG2^Myc-L3*TM6* (full-length ABCG2 with ECL3—TM6 replaced by ECL1—TM2) (human) (UniProt Q9UNQ0); assay: cross-linking
[2] = molecular target: ABCG2^Myc-TM5*L3* (full-length ABCG2 with TM5—ECL3 replaced by TM1—ECL1) (human) (UniProt Q9UNQ0); assay: cross-linking
[3] = molecular target: ABCG2^Myc-TM5* (ABCG2 with TM5 replaced by TM1) (human) (UniProt Q9UNQ0); assay: cross-linking
[4] = molecular target: ABCG2^Myc-TM6* (ABCG2 with TM6 replaced by TM2) (human) (UniProt Q9UNQ0); assay: cross-linking
[5] = molecular target: ABCG2^Myc-ECL3* (full-length ABCG2 with ECL3 replaced by ECL1) (human) (UniProt Q9UNQ0); assay: cross-linking
[6] = molecular target: T1, HA-tagged full-length ABCG2 (ABCG2^HA-WT) (human, UniProt Q9UNQ0 1-655, R482G); assay: co-IP
T1 sequence (looked up): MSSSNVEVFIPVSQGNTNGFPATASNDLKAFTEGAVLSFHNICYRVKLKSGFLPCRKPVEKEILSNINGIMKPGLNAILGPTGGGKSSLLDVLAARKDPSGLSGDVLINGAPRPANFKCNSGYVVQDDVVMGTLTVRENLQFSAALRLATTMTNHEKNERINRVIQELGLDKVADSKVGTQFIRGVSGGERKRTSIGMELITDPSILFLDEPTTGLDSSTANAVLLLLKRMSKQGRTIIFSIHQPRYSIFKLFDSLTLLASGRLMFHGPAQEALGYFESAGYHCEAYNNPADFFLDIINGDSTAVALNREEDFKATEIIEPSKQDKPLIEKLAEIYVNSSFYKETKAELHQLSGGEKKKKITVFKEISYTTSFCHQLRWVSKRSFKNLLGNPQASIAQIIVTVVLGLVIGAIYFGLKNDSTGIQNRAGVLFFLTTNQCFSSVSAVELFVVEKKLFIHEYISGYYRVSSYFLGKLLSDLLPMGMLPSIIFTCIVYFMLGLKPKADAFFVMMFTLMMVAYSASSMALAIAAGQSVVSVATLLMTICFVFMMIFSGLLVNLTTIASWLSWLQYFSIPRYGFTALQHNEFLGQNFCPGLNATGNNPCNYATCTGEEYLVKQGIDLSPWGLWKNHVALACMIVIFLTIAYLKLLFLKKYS

Work on “ABCG2^Myc-L3*TM6* (full-length ABCG2 with ECL3—TM6 replaced by ECL1—TM2) (from UniProt Q9UNQ0 1-655) (natural protein)” yielded a percent of the protein cross-linked as dimer [1] of 11% and a percent of the protein cross-linked as hexamer [1] of 89%.

With “ABCG2^Myc-TM5*L3* (full-length ABCG2 with TM5—ECL3 replaced by TM1—ECL1) (from UniProt Q9UNQ0 1-655) (natural protein)” the percent of the protein cross-linked as dimer [2] was 29%, the percent of the protein cross-linked as pentamer [2] was 51% and the percent of the protein cross-linked as trimer [2] was 8%.

“ABCG2^Myc-TM5* (ABCG2 with TM5 replaced by TM1) (from UniProt Q9UNQ0 1-655) (natural protein)” was tested, and the percent of the protein cross-linked as dimer [3] was 31%, the percent of the protein cross-linked as tetramer [3] was 10% and the percent of the protein cross-linked as trimer [3] was 32%.

Work on “ABCG2^Myc-TM6* (ABCG2 with TM6 replaced by TM2) (from UniProt Q9UNQ0 1-655) (natural protein)” yielded a percent of the protein cross-linked as dimer [4] of 18%, a percent of the protein cross-linked as tetramer [4] of 49% and a percent of the protein cross-linked as trimer [4] of 29%.

For “ABCG2^Myc-ECL3* (full-length ABCG2 with ECL3 replaced by ECL1) (from UniProt Q9UNQ0 1-655) (natural protein)”, the percent of the protein cross-linked as dimer [5] was 26%, the percent of the protein cross-linked as pentamer [5] was 43% and the percent of the protein cross-linked as trimer [5] was 11%.

B1: Myc-tagged wild-type ABCG2 (ABCG2^Myc-WT) (natural protein, human, UniProt Q9UNQ0 1-655, looked up)
chain: MSSSNVEVFIPVSQGNTNGFPATASNDLKAFTEGAVLSFHNICYRVKLKSGFLPCRKPVEKEILSNINGIMKPGLNAILGPTGGGKSSLLDVLAARKDPSGLSGDVLINGAPRPANFKCNSGYVVQDDVVMGTLTVRENLQFSAALRLATTMTNHEKNERINRVIQELGLDKVADSKVGTQFIRGVSGGERKRTSIGMELITDPSILFLDEPTTGLDSSTANAVLLLLKRMSKQGRTIIFSIHQPRYSIFKLFDSLTLLASGRLMFHGPAQEALGYFESAGYHCEAYNNPADFFLDIINGDSTAVALNREEDFKATEIIEPSKQDKPLIEKLAEIYVNSSFYKETKAELHQLSGGEKKKKITVFKEISYTTSFCHQLRWVSKRSFKNLLGNPQASIAQIIVTVVLGLVIGAIYFGLKNDSTGIQNRAGVLFFLTTNQCFSSVSAVELFVVEKKLFIHEYISGYYRVSSYFLGKLLSDLLPMGMLPSIIFTCIVYFMLGLKPKADAFFVMMFTLMMVAYSASSMALAIAAGQSVVSVATLLMTICFVFMMIFSGLLVNLTTIASWLSWLQYFSIPRYGFTALQHNEFLGQNFCPGLNATGNNPCNYATCTGEEYLVKQGIDLSPWGLWKNHVALACMIVIFLTIAYLKLLFLKKYS
In the case of B1, the “Co-IP with WT, relative to the wild-type construct” value [6] is reported as 100%.
